Test results reported in the nanobody polyreactivity screen of Harvey et al. (2022).

Experiment: yeast display, Sf9 membrane polyspecificity reagent, FACS + sequencing; frameworks hold sequencing errors
Method in brief: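 A synthetic nanobody library was expressed on Saccharomyces cerevisiae BJ5465 by galactose induction for 36–48 hours. The library was stained for 1 hour at 4 °C with 10% biotinylated, detergent-solubilized Sf9 membrane reagent and enriched with streptavidin microbeads before FACS. Low and high (top ~1%) gates were set on anti-HA fluorescence for expression and streptavidin fluorescence for reagent binding, and each polyreactivity label reflects the gate of origin.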

| Sequence | polyreactivity (PSR sort gate) |
| --- | --- |
| QVQLVESGGGLVQAGGSLRLSCAASGSTLYYYAMGWYRQAPGKERELVASITKSGASTYYADSVKGRFTISRDNAKNTVYLLMNSLKPEDTAVYYCAADVGAIYDNAENGYWGQGTQVTVSS | low polyreactivity |
| QVQLVESGGGLVQAGGSLRLSCAASGSTNYPNAMGWYRQAPGKESELVARISRNGGSTYADSVKGRFTISRDNAKNTVYFQMNSLKPEDTEVYYCARSYASFSWLRTKEPYEYWGQGTQVTVSS | low polyreactivity |
| QVQLVESGGGLVQAGGSLRLSCAASGSTRLYAMGWYRQAPGKERELVAAIRSSGSSTYYADSVKGRFTISRDNAKNTVYLQMNSLKPEDTAVYYCNADRIRKGWRYDYWGQGTQVTVSS | high polyreactivity |
| QVQLVESGGGLVQAGGSLRLSCAASGSTSDDNTMGWYRQAPGKERELVAAITWSGGRTSYADSVKGRFTISRDNAKNTVYLQMNSLKPEDTAVYYCAADKSGRGLDYWGQGTQVTVSS | low polyreactivity |
| QVQLVESGGGLVQAGGSLRLSCAASGSTSDINAMGWYRQAPGKERELVAVITDSSNTDYADSVKGRFTISRDNAKNTVYLQMNSLKPEDTADDYCAADRDEPDPYDYWGQGTQVTVSS | low polyreactivity |
| QVQLVESGGGLVQAGGSLRLSCAASGSTSDPYGMGWYRQAPGKERELVAAISSNGDSTYYADSVKGRFTLSRDNAKNTVYLQMNSLKPEDTAVYYCAARILYSYHLYDYWGQGTQVTVSS | high polyreactivity |
| QVQLVESGGGLVQAGGSLRLSCAASGSTSGTNAMGWYRQAPGKERELVATISRRGGSTYYADSVKGRFTISRDNAKNTVYLQMNSLKQDYTAVYYCAARTYGYFLYDYWGQGTQVTVSS | high polyreactivity |
| QVQLVESGGGLVQAGGSLRLSCAASGSTSKYYAMGWYRQAPGKERELVAAITWSDVSTYYADSVKGRFTISRDNAKNTVYLQMNSLKPEDTAVYYCNAGYDYWGQGTQVTVSS | low polyreactivity |
| QVQLVESGGGLVQAGGSLRLSCAASGSTSLKNAMGWYRQAPGKERELVAAINSVGDTYYADSVKGRFTISRDNAKNTVYLQMNSLKPEDTAVYYCAKRVVRYGKRMGYWGQGTQVTVSS | high polyreactivity |
| QVQLVESGGGLVQAGGSLRLSCAASGSTSLYNMGWYRQAPGKERELVAAIDSGSTNYADSVKGRFTISRDNAKNTVYLQMNSLKPEDTAVYYCAADGTNIGVYDRASYRDDYWGQGTQVTVSS | low polyreactivity |
| QVQLVESGGGLVQAGGSLRLSCAASGSTSNIYGMGWYRQAPGKERELVAGISRRGSSTYYADSVKGRFTISRDNAKNSVYLHMNSLKPEDTAVYYCNTRSGGYKHRYDYWGQGTQVTVSS | high polyreactivity |
| QVQLVESGGGLVQAGGSLRLSCAASGSTSPINAMGWYRQAPGKERELVAVISSSGGLTYYADSVKGRFTISRDNAKNTVYLQMNSLKPEDTAVYYCAKRFSRRQPDYDYGGQGTQVTVSS | high polyreactivity |
| QVQLVESGGGLVQAGGSLRLSCAASGSTSQSNAMGWYRQAPGKERELVAAISWSGTSTYYADSVKGRFTISRDNAKNTVYLQMNSLNPEDSAVYYCAADYIFDYDYWGQGTQVTVSS | low polyreactivity |
| QVQLVESGGGLVQAGGSLRLSCAASGSTSQYNAMGWYRQAPGKERELVAAISWSGTSTYYADSVKGRFTISRDNAKNTVYLQMNSLKPEDTAVYYCAADYIFDYDYWGQGTQVTVSS | low polyreactivity |
| QVQLVESGGGLVQAGGSLRLSCAASGSTSRHNTMGWYRQPPGKERELVAAISGGGTTYYADSVKGRFTISRDNAKNTVYLQMNSLKPEDTAVYYCAAAFWGDYASSYRSGLDYWGQGTQVTVSS | low polyreactivity |
| QVQLVESGGGLVQAGGSLRLSCAASGSTSRIYAMGWYRQAPGKERELVAAITRSGGSTYYADSVKGRFTISRDNAKNTVYLQMNSLKPEDTAVYYCAADYRSHSRYRYDKVDYWGQGTQVTVSS | high polyreactivity |

| Sequence | polyreactivity (PSR sort gate) |
| --- | --- |
| QVQLVESGGGLVQAGGSLRLSCAASGSTSRYNVMGWSRQPPGKERELVAAISSRGVSTYYADSVKGRFTISRDNAKNTVYLQMNSLKPEDTAVYYCAALYGGPSHYGYWGQGTQVTVSS | high polyreactivity |
| QVQLVESGGGLVQAGGSLRLSCAASGSTSRYYDMGWYRQAPGKERELVATITISGITNYADSLKGRFTISRDNAKNTVYLQMNSLKPEDTAVYYCATVGPWPGEYDYWGQGTQVTVSS | low polyreactivity |
| QVQLVESGGGLVQAGGSLRLSCAASGSTSSNNAMGWYRQAPGKERELVADISTNGDSTSYADSVKGRFTISRDNAKNTVYLQMNSLKPEDTAVYYCNKDFVYPDDDGLFDYWGQGTQVTVSS | low polyreactivity |
| QVQLVESGGGLVQAGGSLRLSCAASGSTSTLYAMGWYRQAPGKERELVAAISKSGGRTYYADSVKGRFTISRDNAKNTVYLQMNSLKPEDTAVYYCAALAVYPRRFDYWGQGTQVTVSS | high polyreactivity |
| QVQLVESGGGLVQAGGSLRLSCAASGSTSVTNAMGWYRQAPGKEREFVATINYSGTSTYYADSVKGRFTISRDNAKNTVYLLMNSLKPEDTAVYYCNKTFVRGVHGVYLPITSYDYWAQGTQVTVSS | low polyreactivity |
| QVQLVESGGGLVQAGGSLRLSCAASGSTSYDNSMGWNRKAPGKERELVAAITSDGGSTYYADSVKGRFTISRDKAKNTLYLQMNSLKPEDTAVYYCSADVVHQEWVYVYGGRDDYWGQGTQVTVSS | low polyreactivity |
| QVQLVESGGGLVQAGGSLRLSCAASGSTSYNAMGWYRQAPGKERELVAAISDGGGSTYYADSVKGRFTISRDNAKNTVYLQMNSLKPEDTAVYYCAADTITGDGYWGQGTQVTVSA | low polyreactivity |
| QVQLVESGGGLVQAGGSLRLSCAASGSTSYRYAMGWYRQAPGKERELVAGITRSGGSTYYADSVKGRFTISRDNAKNTVYLQMNSLKPEDTAVYYCAAYYSRQYVGYGYWGQGTQVTVSS | high polyreactivity |
| QVQLVESGGGLVQAGGSLRLSCAASGSTSYVYAMGWYRQAPGKERELVAAISNTGNTNYADSVKGRFTISRDNAKNTVYLQMNSLKPEDTAVYYCNADRRGENDWHERDYWGQGTQVTVSS | low polyreactivity |
| QVQLVESGGGLVQAGGSLRLSCAASGSTVAYYAMGWYRQAPGKERELVAAITIDGRTSYADSVKGRFTISRDNAKNTVYLQMNSLKREDTAVYYCARGYFPYGYPWRWGYDRFDYWGQGTQVTVSS | low polyreactivity |
| QVQLVESGGGLVQAGGSLRLSCAASGSTVRGYAKGWYRQAPGKERELGAAITWSGGTTYYADSVKGRFTISRDNAKTTVYLQMNSLKPEDTAVYYCAAQNWDSDPYDYWGQATQVTVSS | low polyreactivity |
| QVQLVESGGGLVQAGGSLRLSCAASGSTVSDNAMGWYRQAPGKERELVAAINWGGSNTYYADSVKGRFTISRDNAKNTVYLQMNSLKPEDTAVYYFNADIPRRTNRHYLYDYWGQGTQVTVSS | low polyreactivity |
| QVQLVESGGGLVQAGGSLRLSCAASGSTVSSNAMGWFRLAPGQERELVAAIDRGGSTYYADSVKGRFTISRDNAKNTVYLQMNSRKPEDTAVYYCNADYYHLNSGMYYWGQGTQVTVSS | low polyreactivity |
| QVQLVESGGGLVQAGGSLRLSCAASGSTVVRYGMGSYRQAPGKERELVAVISRSGGSTYYADSVKARFTISRDNAKNTVFLQMNSLKPEDTAVYYCAITRYGNPNSGGVGYWGQGTQVTVSS | high polyreactivity |
| QVQLVESGGGLVQAGGSLRLSCAASGSTYANAMGWYRQAPGKERELVAAITDNGGRTYYADSVKGRFTISRDNEKNNVYLQMNSLKPEDTAVYYCAARSSVWGQVTQVTVSS | low polyreactivity |
| QVQLVESGGGLVQAGGSLRLSCAASGSTYDDNAMGWYRQAPRKERELVAGISTNGGSTSYADSVKGRFTISRDNAKNTVYLQMNSLYPEDTAVYYCATGLYVQFDYWGQGTQVTVSS | low polyreactivity |
